Laboratory results: patent EP3216458A1

Target: Neuropilin-1 (Nrp-1), zebrafish (zebrafish) (UniProt Q8QFX6)
Experiment: cell-based or functional assay

Chain of UniProt Q8QFX6 (Q8QFX6 20-923 limits assumed): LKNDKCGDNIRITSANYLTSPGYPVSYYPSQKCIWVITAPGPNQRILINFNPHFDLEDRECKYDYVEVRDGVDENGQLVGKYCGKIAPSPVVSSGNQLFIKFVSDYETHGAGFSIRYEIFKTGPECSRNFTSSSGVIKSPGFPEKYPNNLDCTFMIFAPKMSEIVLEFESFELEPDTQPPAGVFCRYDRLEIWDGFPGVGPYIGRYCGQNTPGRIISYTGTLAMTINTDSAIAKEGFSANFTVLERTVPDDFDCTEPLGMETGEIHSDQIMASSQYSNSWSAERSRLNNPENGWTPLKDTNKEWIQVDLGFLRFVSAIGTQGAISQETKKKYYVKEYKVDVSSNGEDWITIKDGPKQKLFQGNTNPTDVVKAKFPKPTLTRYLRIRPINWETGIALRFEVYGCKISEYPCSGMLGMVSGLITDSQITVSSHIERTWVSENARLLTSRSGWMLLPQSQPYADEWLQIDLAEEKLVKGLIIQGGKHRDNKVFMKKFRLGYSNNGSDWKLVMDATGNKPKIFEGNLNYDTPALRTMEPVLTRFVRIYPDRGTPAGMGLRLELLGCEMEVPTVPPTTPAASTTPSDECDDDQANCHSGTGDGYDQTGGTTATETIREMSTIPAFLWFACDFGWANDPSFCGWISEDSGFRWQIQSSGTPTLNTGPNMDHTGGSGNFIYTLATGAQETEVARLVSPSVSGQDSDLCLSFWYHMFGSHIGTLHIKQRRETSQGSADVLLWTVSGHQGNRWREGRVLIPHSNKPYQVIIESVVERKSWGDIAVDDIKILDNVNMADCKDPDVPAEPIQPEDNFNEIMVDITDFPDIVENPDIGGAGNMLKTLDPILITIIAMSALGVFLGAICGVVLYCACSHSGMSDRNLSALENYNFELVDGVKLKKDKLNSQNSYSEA

Rescue percentage (embryos with blood flow circulation and without pericardial edema after mRNA injection into vegfaa-/- zebrafish): 3%
Substance: Vegfaa-165 R165E (zebrafish VEGF-A isoform 165 with arginine 165 changed to glutamic acid) (ligand)
